Paper PMC8955265, “Systematic Discovery of FBXW7-Binding Phosphodegrons Highlights Mitogen-Activated Protein Kinases as Important Regulators of Intracellular Protein Levels” (International Journal of Molecular Sciences, 2022)
Where no end group is shown, it is not given here. [ ]: non-standard residue; d: D form. pT = C[C@@H](OP(=O)(O)O)[C@H](N)C(=O)O; pS = N[C@@H](COP(=O)(O)O)C(=O)O; CF = carboxyfluorescein

Molecular target: T1, Skp1-FBXW7 complex (human, UniProt P63208 1-149; Q969H0 263-707)
T1 construct: Skp1, truncated, residues 1-149; cDNA obtained from a HEK293T cell cDNA pool; human FBXW7, residues 263-707 (holds the WD40 domain); it was removed with TEV protease after Ni-NTA; also called purified FBXW7; FBXW7-Skp1 complex; source: E. coli Rosetta (DE3), co-expressed from a bicistronic plasmid (pMG950), purified (Ni-NTA, anion exchange, SEC); not shown: His6, N-terminal, cleaved
Test: fluorescence polarisation; direct titration: 50 nM CF-labeled CCNE peptide, increasing Skp1-FBXW7 complex; 20 mM Tris pH 8.0, 100 mM NaCl, 0.05% Brij35P, 2 mM TCEP; 384-well plates, 20 uL
Settings: both partners purified

T1 sequence (P63208 1-149, chain 1 of 2): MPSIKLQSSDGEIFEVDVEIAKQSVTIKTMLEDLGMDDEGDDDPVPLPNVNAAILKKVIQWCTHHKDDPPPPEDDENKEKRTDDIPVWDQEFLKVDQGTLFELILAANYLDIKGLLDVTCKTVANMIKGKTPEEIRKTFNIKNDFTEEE
T1 sequence (Q969H0 263-707, chain 2 of 2): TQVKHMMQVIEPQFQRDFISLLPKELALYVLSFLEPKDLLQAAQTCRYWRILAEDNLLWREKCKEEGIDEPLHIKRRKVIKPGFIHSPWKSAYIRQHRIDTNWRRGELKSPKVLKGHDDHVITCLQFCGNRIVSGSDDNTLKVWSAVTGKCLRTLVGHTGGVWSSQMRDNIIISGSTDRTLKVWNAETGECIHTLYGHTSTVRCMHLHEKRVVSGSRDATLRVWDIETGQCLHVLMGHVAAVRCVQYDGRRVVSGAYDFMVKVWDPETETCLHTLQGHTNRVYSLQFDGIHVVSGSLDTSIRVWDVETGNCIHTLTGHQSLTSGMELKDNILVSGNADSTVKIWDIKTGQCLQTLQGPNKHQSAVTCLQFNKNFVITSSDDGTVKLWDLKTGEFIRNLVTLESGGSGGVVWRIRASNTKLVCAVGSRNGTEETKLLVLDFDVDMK

B1: carboxyfluorescein (CF) labeled CCNE peptide (CF-PSGLLpTPPQpSGKKQ) (peptide)
peptide: {CF}-PSGLL[pT]PPQ[pS]GKKQ
notes: bisphosphorylated degron motif of cyclin E1 (CCNE1); also called fluorescently labeled CCNE peptide; CCNE1 motif; source: synthetic peptide (GenScript)
binding result: binds
